Results: patent US20190071493A1 (SCHOLAR ROCK, published 2019)

T1: proTGFβ2 (Chlorocebus aethiops (Green monkey) …, UniProt P61811 20-414)
T1 sequence: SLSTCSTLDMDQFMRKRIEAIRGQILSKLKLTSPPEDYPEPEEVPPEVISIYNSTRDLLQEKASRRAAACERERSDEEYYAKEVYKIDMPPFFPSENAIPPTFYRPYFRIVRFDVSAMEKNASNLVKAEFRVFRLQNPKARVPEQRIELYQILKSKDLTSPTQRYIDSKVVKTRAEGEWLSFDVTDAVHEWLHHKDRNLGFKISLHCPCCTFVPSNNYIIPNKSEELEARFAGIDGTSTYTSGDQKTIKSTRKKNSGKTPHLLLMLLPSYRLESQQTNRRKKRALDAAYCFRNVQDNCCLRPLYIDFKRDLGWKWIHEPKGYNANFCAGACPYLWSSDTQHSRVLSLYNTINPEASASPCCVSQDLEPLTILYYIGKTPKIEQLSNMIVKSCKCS

T2: proTGFβ3 (Homo sapiens (Human), UniProt P10600 24-412)
T2 sequence: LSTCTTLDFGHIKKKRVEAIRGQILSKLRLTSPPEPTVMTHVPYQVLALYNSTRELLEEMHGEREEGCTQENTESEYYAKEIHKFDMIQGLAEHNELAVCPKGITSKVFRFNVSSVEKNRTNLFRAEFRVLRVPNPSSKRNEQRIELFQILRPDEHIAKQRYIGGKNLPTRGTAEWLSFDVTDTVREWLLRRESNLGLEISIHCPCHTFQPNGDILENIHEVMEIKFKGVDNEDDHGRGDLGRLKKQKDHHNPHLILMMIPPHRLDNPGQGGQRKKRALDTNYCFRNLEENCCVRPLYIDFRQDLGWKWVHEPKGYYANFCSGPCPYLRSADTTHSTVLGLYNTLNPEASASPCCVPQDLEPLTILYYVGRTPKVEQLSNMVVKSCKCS

B1: Ab2 (antibody, V domains shown)
VH: EVQLVQSGAEMKKPGESLKISCKGSGYNFASDWIGWVRQTPGKGLEWMGVIYPGDSDTRYSASFQGQVTISADKSINTAYLQWSSLKASDTAMYYCASAAGIAAAGHVTAFDIWGQGTMVTVSS
VL: not shown
notes: also called antibody Ab2; clone Ab2
B2: Ab1 (antibody, human IgG4 S228P, lambda, V domains shown)
VH: EVQLVESGGGLVQPGRSLRLSCAASGFTFSSYGMHWVRQAPGKGLEWVAVISYDGSNKYYADSVKGRFTISRDNSKNTLYLQMNSLRAEDTAVYYCARDIRPYGDYSAAFDIWGQGTLVTVSS
VL: NFMLTQPHSVSESPGKTVTISCTGSSGSIASNYVQWYQQRPGSAPSIVIFEDNQRPSGAPDRFSGSIDSSSNSASLTISGLKTEDEADYYCQSYDSSNHGGVFGGGTQLTVLG
notes: also called antibody Ab1; clone Ab1

What was measured:
proTGFβ2 = target: T1, proTGFβ2; test: ELISA
proTGFβ3 = target: T2, proTGFβ3; test: ELISA
[1] = target: rat LTBP1-proTGFβ1 complex (rat, UniProt Q00918 339-1712; P17246 30-390); test: Octet (BLI) binding assay as in Table 6
rat LTBP1-proTGFβ1 complex, sequence (Q00918 339-1712, chain 1 of 2): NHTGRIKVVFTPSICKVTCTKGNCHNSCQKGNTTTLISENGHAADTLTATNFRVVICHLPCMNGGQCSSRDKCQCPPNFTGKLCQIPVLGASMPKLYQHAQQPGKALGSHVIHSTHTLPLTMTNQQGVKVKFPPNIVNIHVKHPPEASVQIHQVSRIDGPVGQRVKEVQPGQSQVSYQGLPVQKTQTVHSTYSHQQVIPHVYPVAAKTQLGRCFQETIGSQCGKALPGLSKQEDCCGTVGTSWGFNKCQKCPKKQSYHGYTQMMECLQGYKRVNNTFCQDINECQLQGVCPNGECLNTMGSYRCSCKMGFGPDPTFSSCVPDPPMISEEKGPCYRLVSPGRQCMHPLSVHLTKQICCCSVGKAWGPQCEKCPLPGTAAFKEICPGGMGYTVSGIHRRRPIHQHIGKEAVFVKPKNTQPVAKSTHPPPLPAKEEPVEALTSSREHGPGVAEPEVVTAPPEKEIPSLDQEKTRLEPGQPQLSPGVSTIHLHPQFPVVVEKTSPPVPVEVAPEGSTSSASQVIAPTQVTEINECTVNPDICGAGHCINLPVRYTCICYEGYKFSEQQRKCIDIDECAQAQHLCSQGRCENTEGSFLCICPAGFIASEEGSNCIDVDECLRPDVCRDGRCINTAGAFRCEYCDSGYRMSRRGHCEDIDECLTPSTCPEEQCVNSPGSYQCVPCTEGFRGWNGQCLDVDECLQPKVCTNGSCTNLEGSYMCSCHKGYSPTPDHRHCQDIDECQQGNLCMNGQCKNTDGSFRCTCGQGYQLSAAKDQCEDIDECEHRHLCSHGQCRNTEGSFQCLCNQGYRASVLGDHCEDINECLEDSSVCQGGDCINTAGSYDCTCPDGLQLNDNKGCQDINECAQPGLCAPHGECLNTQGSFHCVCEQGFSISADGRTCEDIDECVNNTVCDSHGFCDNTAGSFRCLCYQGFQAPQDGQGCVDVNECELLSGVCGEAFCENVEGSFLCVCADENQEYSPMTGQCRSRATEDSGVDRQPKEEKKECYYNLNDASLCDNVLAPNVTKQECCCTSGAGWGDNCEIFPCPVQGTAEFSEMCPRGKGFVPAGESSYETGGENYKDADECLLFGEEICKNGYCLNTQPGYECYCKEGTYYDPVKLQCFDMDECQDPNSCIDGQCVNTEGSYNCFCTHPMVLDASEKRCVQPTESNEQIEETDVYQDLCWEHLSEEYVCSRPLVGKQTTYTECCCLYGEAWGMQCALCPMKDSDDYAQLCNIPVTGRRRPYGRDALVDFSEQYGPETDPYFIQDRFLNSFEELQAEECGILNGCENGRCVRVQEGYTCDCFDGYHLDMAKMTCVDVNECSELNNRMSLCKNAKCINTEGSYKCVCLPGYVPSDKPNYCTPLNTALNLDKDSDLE
rat LTBP1-proTGFβ1 complex, sequence (P17246 30-390, chain 2 of 2): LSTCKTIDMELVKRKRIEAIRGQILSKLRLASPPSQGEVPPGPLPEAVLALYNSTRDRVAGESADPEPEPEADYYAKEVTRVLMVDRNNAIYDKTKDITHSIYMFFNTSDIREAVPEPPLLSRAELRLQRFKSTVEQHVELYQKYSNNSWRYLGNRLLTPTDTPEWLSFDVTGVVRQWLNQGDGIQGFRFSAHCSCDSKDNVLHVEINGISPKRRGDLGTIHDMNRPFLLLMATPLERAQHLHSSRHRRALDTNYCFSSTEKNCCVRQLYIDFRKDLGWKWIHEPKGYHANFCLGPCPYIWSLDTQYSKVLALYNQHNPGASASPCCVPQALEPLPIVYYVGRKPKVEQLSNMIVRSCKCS
Protocol: a. Dilute both antibodies to 50 μg/mL in 300 μl of 1x buffer in row A. b. Add 200 μl of buffer to the rest of each column c. Transfer 100 μl down the column to make 3-fold dilutions

binding result (proTGFβ2) | binding result (proTGFβ3) | binding result [1] | Binder
no binding | no binding |  | B1
no binding | no binding | no binding | B2
